The values that follow come from publication PMC10036536, “Optimizing human α-galactosidase for treatment of Fabry disease” (Scientific Reports, 2023).

This data set deals with the molecule itself. Kind of data set: SEC; protein eluted from concanavalin A-Sepharose; Superdex 200 PG 26/60, 2.4 mM Na2HPO4, 17.6 mM NaH2PO4 (pH 6.0), 150 mM NaCl, 0.02% Tween-20.

B1: recombinant human α-galactosidase A (GLA) (enzyme, UniProt P06280 32-429, looked up)
chain: LDNGLARTPTMGWLHWERFMCNLDCQEEPDSCISEKLFMEMAELMVSEGWKDAGYEYLCIDDCWMAPQRDSEGRLQADPQRFPHGIRQLANYVHSKGLKLGIYADVGNKTCAGFPGSFGYYDIDAQTFADWGVDLLKFDGCYCDSLENLADGYKHMSLALNRTGRSIVYSCEWPLYMWPFQKPNYTEIRQYCNHWRNFADIDDSWKSIKSILDWTSFNQERIVDVAGPGGWNDPDMLVIGNFGLSWNQQVTQMALWAIMAAPLFMSNDLRHISPQAKALLQDKDVIAINQDPLGKQGYQLRQGDNFEVWERPLSGLAWAVAMINRQEIGGPRSYTIAVASLGKGVACNPACFITQLLPVKRKLGFYEWTSRLRSHINPTGTVLLQLENTMQMSLKDLL
notes: α-galactosidase A, human, UniProt P06280; The methods say fractions of the homodimer were pooled; also called rhGLA
On to B1, for which the “stoichiometry N” value came out at 2.
